Measured values taken from patent US20250340646A1 (ELPIS BIOPHARMACEUTICALS, published 2025).
Values belong to the binder of their own block, whether it stands above or below them.

What was measured:
[1] = molecular target: T1, recombinant His-tagged human IL-2Rβ (human, UniProt P14784 27-240, limits assumed); test: SPR, Protein A capture, IL-2Rβ-HIS analyte
T1 construct: also called IL-2Rβ-HIS; IL-15Rβ-HIS
T1 sequence (looked up): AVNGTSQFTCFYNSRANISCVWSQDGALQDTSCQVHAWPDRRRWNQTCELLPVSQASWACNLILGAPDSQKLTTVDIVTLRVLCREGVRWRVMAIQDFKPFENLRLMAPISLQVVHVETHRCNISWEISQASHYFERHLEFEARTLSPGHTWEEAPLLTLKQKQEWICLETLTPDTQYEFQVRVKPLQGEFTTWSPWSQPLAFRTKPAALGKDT
Procedure: (§1) The assay was run with Biacore T200 control software version 2.0. For each cycle, 1 μg/mL of anti-hPD-L1/IL-2 was captured for 60 seconds at flow rate of 10 μL/min on flow cell 2 in 1×HBSP buffer on Protein A sensor chip. […] The flow cells were then regenerated with Glycine pH2 for 60 seconds at flow rate of 30 μL/min. […] The specific binding response unit was derived from subtraction of binding to reference flow cell 1 from antibody captured flow cell 2.

[2] = molecular target: T2, human PD-L1-HIS tagged recombinant protein (human, UniProt Q9NZQ7 19-238); test: SPR, Protein A capture, PD-L1-HIS analyte
T2 construct: also called hPD-L1-HIS; PD-L1 HIS tagged protein
Procedure: as §1

biotinylated PD-L1 = biotinylated PD-L1 (Homo sapiens (Human), UniProt Q9NZQ7 19-238, biotinylated; site not stated); test: ELISA, anti-human Fc capture, biotinylated PD-L1
Procedure: A 384 well plate was immobilized with anti-human Fc at final concentration of 2 μg/mL in 1×PBS in total volume of 25 μL per well. The plate was incubated overnight at 4C followed by blocking with 80 μL of superblock per well for 1 hour. […] In between each step, the plate was washed 3 times with 1×PBST in a plate washer. The plate was then developed with 25 μL of TMB substrate for 5 min and stopped by adding 25 μL of 2N sulfuric acid. The plate was read at OD450 nm Biotek plate reader and the binding correlation was plotted with Prism 8.1 software. The ELISA binding assays of the antibodies to IL-2Rα and IL-2Rβ receptors were performed as described in Example 6.

[3] = molecular target: T3, recombinant His-tagged human IL-2Rα (human, UniProt P01589 22-213, limits assumed); test: ELISA, coated His-tagged human IL-2Rα, OD 450 nm
T3 construct: also called IL-2Rα-HIS; CD25
T3 sequence (looked up): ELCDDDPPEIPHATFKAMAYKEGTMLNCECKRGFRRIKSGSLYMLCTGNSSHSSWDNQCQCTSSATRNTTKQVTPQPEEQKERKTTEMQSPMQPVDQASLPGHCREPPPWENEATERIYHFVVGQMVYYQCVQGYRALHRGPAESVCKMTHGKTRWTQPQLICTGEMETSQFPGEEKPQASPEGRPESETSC
Procedure: (§2) For monovalent IL-2 Fc-fusion proteins, recombinant His-tagged human IL-2Rα and IL-2Rβ were added in 25 μL of 1×PBS to wells of 384-well plate and incubated overnight at 4° C. to coat the plates. Plates were washed three times with 0.05% Tween20/1×PBS. Plates were blocked with 100 μL of SuperBlock for 1 hr at RT and then washed 3 times with 0.05% Tween20/1×PBS. IL-2 mutants were diluted in 0.05% Tween 20/1×PBS from 1000 nM to 0 nM and added to plates for 2 hrs at room temperature. Plates were then washed 6 times with 0.05% Tween20/1×PBS. Anti-HisTag-HRP was diluted 1:5000 in 0.05% Tween20/1×PBS and added to plates for 1 hr at RT. Plates were then washed 6 times with 0.05% Tween 20/1×PBS, and TMB was added to develop blue color. Reactions were stopped with 2N […] and light absorbance at 450 nm was read on a BioTek plate reader. Absorbance versus IL-2 concentration is graphed for human IL-2Rα and IL-2Rβ.
A 384 well plate was immobilized with anti-human Fc at final concentration of 2 μg/mL in 1×PBS in total volume of 25 μL per well. The plate was incubated overnight at 4C followed by blocking with 80 μL of superblock per well for 1 hour. […] In between each step, the plate was washed 3 times with 1×PBST in a plate washer. […] The plate was read at OD450 nm Biotek plate reader and the binding correlation was plotted with Prism 8.1 software. […]

[4] = molecular target: T1, recombinant His-tagged human IL-2Rβ; test: ELISA, coated His-tagged IL-2Rβ
Procedure: as §2, with “IL-2Rβ. […]” for “IL-2Rβ.”

[5] = molecular target: T4, PD-L1 biotinylated (PD-1/PD-L1 TR-FRET assay kit, BPS 72038) (Homo sapiens (Human), UniProt Q9NZQ7 19-238, biotinylated; site not stated); test: HTRF competition, competitor PD-1-Eu
T4 construct: Kit reagent
Procedure: Briefly, 1× Immuno buffer 1 was made. […] For each well in 384-well plate, serial diluted scFvs and regents were added according to manufacturer's recommended volume. Samples were incubated at room temperature for 1.5 hours then the fluorescent intensity was read with Biotek Neo2 plate reader using manufacture's instrument setting for the assay.

[6] = molecular target: T1, recombinant His-tagged human IL-2Rβ; test: SPR, Protein A capture, IL-2Rβ-HIS analyte, steady state affinity
Procedure: as §1

[7] = molecular target: PD-L1 on PD-L1 aAPC/CHOK1 cells (Promega J1250); test: cell-based or functional assay
human PD-L1-Fc [8] = molecular target: T5, human PD-L1-Fc (human, UniProt Q9NZQ7 19-238); test: SPR, PD-L1-Fc captured, scFv analyte; exponent sign missing in print, value set to E-03 from the same row's KD x kon
T5 construct: also called recombinant PD-L1-Fc fusion protein

human PD-L1-Fc [9] = molecular target: T5, human PD-L1-Fc; test: SPR, PD-L1-Fc captured, scFv analyte
Procedure: The assay was run with Biacore T200 control software version 2.0. Anti-human Fc antibody was immobilized on flow cell 1 and 2 of CM5 sensor chip. […] The flow cells were then regenerated with antibody regeneration buffer (GE Healthcare) for 30 seconds at flow rate of 30 μl/min.
(§3) The production, the binding, and all of the characterization assays for selected affinity matured scFv clones were performed as described above.

human PD-L1-Fc [10] = molecular target: T5, human PD-L1-Fc; test: ELISA, coated PD-L1-Fc, anti-FLAG HRP
Procedure: The plate was incubated overnight at 4° C. followed by blocking with 80 μL of superblock per well for 1 hour. […] In between each step, the plate was washed 3 times with 1×PBST in a plate washer. The plate was then developed with 20 μL of TMB substrate for 5 min and stopped by adding 20 μL of 2N sulfuric acid. The plate was read at OD450 nm Biotek plate reader and then plotted in Prism 8.1 software.
as §3

[11] = molecular target: T6, full-length human PD-L1 on K562 cells (human, UniProt Q9NZQ7 19-290); test: FACS, PD-L1/K562 cells
T6 construct: also called PD-L1/K562; cell surface human PD-L1
Procedure: Cells were spun down at 1200 rpm for 5 minutes at 4° C. to remove primary antibodies. Cells were then washed once with 200 μL of full medium per well. […] Samples were spun down at 1200 rpm for 5 minutes at 4° C. and washed twice with 200 μL of 1×PBS per well. Samples were reconstituted in 200 μL of 1×PBS and were read on Attune NxT cytometer.
as §3

Kd [1]: 6.5 nM | koff [1]: 0.0107 s⁻¹ | kon [1]: 1.65e+06 M⁻¹ s⁻¹ | Kd [2]: 0.507 nM | koff [2]: 0.000247 s⁻¹ | kon [2]: 487000 M⁻¹ s⁻¹ | EC50 (biotinylated PD-L1): 0.345 nM | EC50 [4]: 0.545 nM
B1: IL-2/anti-PD-L1 scFv Fc EP413/EP326 (bispecific antibody)
chain 1: not shown
chain 2: QVQLVQSGAEVKKPGSSVKVSCKASGGTFSSYAISWVRQAPGQGLEWMGGIIPIFGTANYAQKFQGRVTITADESTSTAYMELSSLRSEDTAVYYCARDKWYGSAWRGDYWGQGTLVTVSSGGGGSGGGGSGGGGSQSVLTQPPSASGTPGQRVTISCSGSYSNIGSNFVNWYQQLPGTAPKLLIHFNNQRPSGVPDRFSGSRSGTSASLAISGLQSEDEADYFCSTWDDSLKGPIFGGGTKLTVLDKTHTCPPCPAPEAAGGPSVFLFPPKPKDTLMISRTPEVTCVVVDVSHEDPEVKFNWYVDGVEVHNAKTKPREEQYNSTYRVVSVLTVLHQDWLNGKEYKCKVSNKALGAPIEKTISKAKGQPREPQVCTLPPSRDELTKNQVSLSCAVKGFYPSDIAVEWESNGQPENNYKTTPPVLDSDGSFKLVSKLTVDKSRWQQGNVFSCSVMHEALHNHYTQKSLSLSPGK
notes: IL2 EP001 carrying K35L/R38D/F42R
binding result [3]: no binding (tested: LOG(IL-2(nM)) 2 (100 nM))

Kd [2]: 0.547 nM | IC50 [5]: 346 nM | EC50 (biotinylated PD-L1): 0.287 nM | Kd [6]: 75.8 nM | NFAT reporter EC50 [7]: 9.07 nM
B2: IL-2/anti-PD-L1 scFv Fc EP418/EP326 (bispecific antibody)
chain 1: not shown
chain 2: B1 chain 2
notes: IL2 EP340

koff (human PD-L1-Fc [8]): 0.00454 s⁻¹ | Kd (human PD-L1-Fc [9]): 2.58 nM | kon (human PD-L1-Fc [9]): 1.76e+06 M⁻¹ s⁻¹ | EC50 (human PD-L1-Fc [10]): 0.507 nM | EC50 [11]: 0.221 nM
B3: 2019EP69-C05 scFv (scFv, V domains shown)
VH: QVQLVQSGAEVKKPGSSVKVSCKASGGTFSSYAISWVRQAPGQGLEWMGGIIPIFGTANYAQKFQGRVTITADESTSTAYMELSSLRSEDTAVYYCARDKGYGSGFRGDYWGQGTLVTVSS
VL: QSVLTQPPSASGTPGQRVTISCSGSYSNIGSNFVNWYQQLPGTAPKLLIHFNNQRPSGVPDRFSGSRSGTSASLAISGLQSEDEADYFCSTWDDSLKGPIFGGGTKLTVL
